B1: TLE6 (parent)
chain: FWHDTLTEQLWRIFAGVHDEKAKP
B2: TRIM15 (parent)
chain: QSSGKILLCPLCQEEEQAETPMAP

Variants of: B1
Test: protein stability index of a GFP-peptide fusion (GPS, HEK-293T) (PSI 1-6); higher = more stable
Conditions: c terminus: a fixed tail appended
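Note: lentivirally expressed fusions sorted by FACS into six bins by GFP to DsRed ratio, PSI derived from sequencing read proportions per bin multiplied by bin number.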

Protein stability index: each site, then its substitutions
L10: R 1.6; A 2.17; K 2.59; E 2.41; V 2.11; H 2.54; G 2.24; D 2.34; P 1.61; Q 2.19; N 1.92; T 1.74; Y 1.75; I 2.09
E20: S 2.41; G 1.91; Y 2.01; A 2.37; T 1.91; V 1.9; W 2.86; K 1.87; C 1.79; D 2.62; F 1.82; P 1.87
T7: F 2.03; K 2.16; A 1.92; D 2.01; H 2.24; S 2.07; Y 2.31; P 2.01; W 2; N 1.36
F14: R 2.4; G 2.21; K 2.61; H 1.65; T 2.39; D 1.61; Q 1.52; V 2.35; L 1.8; A 1.65; M 2.19; C 2.62; E 2.19; S 1.75
D19: S 1.79; E 1.62; V 3.94; F 2.61; N 2.8; Y 2.97; L 1.39; G 1.72; H 1.65; A 2.33; R 2.35; T 2.7; M 2.1; Q 1.22
A15: T 1.89; Q 1.61; V 2.82; S 2.43; M 1.39; C 2.23; E 1.77; D 1.86; G 2.02; R 1.94; I 1.79; H 1.86; L 2.41; P 2.23; N 1.68
A22: R 1.84; E 1.75; G 1.88; K 1.64; F 3.14; Q 1.53; I 1.74; M 2.03; L 1.58; N 1.94; W 1.38; T 2.15; H 1.83
I13: S 1.99; W 1.47; Y 2.1; C 2.39; V 1.72; A 2.02; L 1.69; T 2.44; H 1.94; Q 2.54; R 2.02; F 1.96
R12: E 1.63; K 2.17; C 2.88; V 1.71; P 2.43; M 1.52; T 2.02; H 2.11; F 2.21; I 2.73; W 2.47
H18: Y 2.35; E 2.07; N 2.09; W 1.36; F 1.92; V 1.61; D 2.1; K 1.53; G 1.79; M 2.48; Q 1.5; P 1.48
W11: P 3.12; R 2.22; S 2.18; N 2.19; C 1.99; A 2.37; M 1.76; I 1.79; T 2.35; K 2.52; Y 2.87; E 2.85; D 2.82; V 1.56
W2: C 1.66; H 3; M 1.42; Q 2.87; A 2; D 2.61; E 2.41; R 2.46; K 2.11; I 2.26; V 3.26; L 2.54; T 2.35
F1: M 2.12; W 1.82; I 1.95; D 2.17; N 2.12; C 2.42; L 1.93; V 1.8; K 2.44; G 2.32; Y 2.05; E 1.81; T 2.01; Q 2.54
D4: Y 3.37; N 1.71; K 1.76; L 1.74; V 2.09; S 1.83; I 2.06; P 2.31; R 1.58; T 1.73; C 1.91; F 3.05; M 2.44
K23: M 2.8; E 1.65; W 2.25; G 1.35; P 1.78; N 2.32; F 3.09; R 1.52; H 2.5; L 1.89; D 1.49; V 2.71; C 2.13; Q 1.83
H3: T 2.75; V 1.65; N 2.7; K 1.82; L 1.9; M 2.25; D 2.16; Y 1.91; W 3.07; Q 1.69; G 1.82
E8: M 1.1; A 1.66; W 2.35; H 2.52; R 1.85; Y 2.53; L 2.23; T 1.74; K 2.04; G 1.69; D 2.02
Q9: Y 1.65; P 2.69; R 2.48; M 1.74; A 3.78; D 1.97; N 2.45; K 1.51; C 3.67; V 4.83; W 2.79
K21: E 2.08; D 2.6; S 1.6; M 2.85; V 3.44; W 2.44; Y 3.31; C 1.51; I 3.25; N 2.2; R 1.31; G 2.06; L 2.2; T 1.85; Q 1.81; A 1.69
T5: E 1.91; D 2.13; F 2.25; P 2.73; H 2.23; G 1.46; L 1.97; V 2.62; C 1.34; N 2.23; S 1.98; I 2.26
G16: Y 2.51; W 2.23; S 1.82; E 1.9; P 3.4; T 1.62; C 1.83; D 2.06; V 2.85; K 2.12; L 1.64
V17: L 1.48; N 1.83; I 1.14; S 1.85; H 2.82; Q 2.06; E 1.83; A 2.81; R 2.25; T 1.33; F 1.69; P 1.65
P24: D 1.65; Y 1.58; E 2.03; H 2.1; L 1.5; W 1.92; V 2.97
L6: T 1.81; F 1.58; V 1.75; K 2.4; C 1.97; Y 1.11; P 1.63; Q 2.31; H 2.35; G 1.77; E 1.91; I 2.36

Variants of: B2
Test: as above
Conditions: c terminus: a fixed tail appended

Protein stability index, by site and new letter:
Q1: A 3.2; C 2.72; D 3.99; E 3.98; F 1.4; G 3.8; I 3.27; K 3.46; L 3.13; M 2.63; N 3.06; P 2.73; R 3.35; S 3.28; T 3.16; V 2.87; W 3.08; Y 1.58
S2: A 3.52; C 2.88; D 3.78; E 4; F 2.18; H 3.32; I 2.62; K 3.47; L 2.67; M 2.79; N 2.86; R 3.28; T 3.34; V 2.56; W 2.38; Y 2.85
S3: A 3.62; C 2.33
